Measured values as given in the supplement of paper PMC9170038.

System: MS2 coat protein
Assay: apparent KD of MS2 coat protein; higher = weaker reporter binding
Conditions: Eterna round: R107
Summary of the method: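 With or without constant ligand, designed RNA switches in 100 mM Tris-HCl pH 7.5, 80 mM KCl and 4 mM MgCl2 were titrated with SNAP-549-labelled MS2 coat protein. Concentrations went up in twofold steps from 0.7 or 1.5 nM to 3 µM. The switches had been transcribed on-chip from Illumina sequencing clusters, and apparent KD is the per-design median of normalised cluster binding-curve fits.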

[1] = input ligand: theophylline 20 uM
[2] = input ligand: tryptophan 2.4 mM
[3] = input ligand: theophylline 2 mM

Sequence	apparent KD of MS2 coat protein (input ligand: arginine 13.2 mM)	apparent KD of MS2 coat protein [1]	apparent KD of MS2 coat protein [2]	apparent KD of MS2 coat protein (input ligand: none)	apparent KD of MS2 coat protein [3]
ACAUGAGGAUCACCCAUGUUCCUCAUUGAUACCAGUGAAUUUAGACGCCCUUGGCAGCGAGUUUUUGAAGAAGAAGUUUUUUUUU [6.D]	235 nM	731 nM	1080 nM	–	–
GCCGGGCCCGCGGCCGCCACUGAGAGAGUCGUGUGAACAUGAGGAUCACCCAUGUAAUAUAUAUACAGGACCGGGCGGGCCCGGC [4.X]	13.8 nM	20.1 nM	13.9 nM	10.4 nM	15.7 nM
UAAAAUAUCUGGGUGUAGGUAAUAACAGAUACCAGCCAGAUAACUGGCCCUUGGCAGCUGAAAACAUGAGGAUCACCCAUGUAAA [TheoAS 22 #OpenEnded #Ms2Late]	28.1 nM	50.3 nM	28.6 nM	30.7 nM	236 nM
CGAUAUAUACGAAGGAGCGACAUGAGGAUCACCCAUGUCUACCACGUCGAAAGACGCUCAUGUCAGGUAGGUCGCGUAUAUAUCG [Astros-Eli-mod9]	56.7 nM	123 nM	117 nM	137 nM	239 nM
AUGCAGAACACGGCCGCCACUCAUUGUAGACAUGAGGAUCACCCAUGUAAUAGGGAUAUUUUAUUGAGGACCGGGUGUAAUGCAA [JR_SSTryptoB_Sub013]	34.5 nM	77.6 nM	–	–	59.5 nM
AGCCACUCGAGUGAUCCUCACGAGUGGCAACGAGGACCGGUACGGCCGCCACUCGAAUAACAUGAGGAUCACCCAUGUUUAUAAU [#01 Tryptophan A - Same State]	51.1 nM	176 nM	–	–	258 nM
GGUUACUCUACGGCCGCCACUGAACAUGAGGAUCACCCAUGUAAUGUUCAGUAGUCUUUAGACAACAGGACCGGGUAGUGUAACC [Tryptophan B 6]	109 nM	236 nM	–	–	271 nM
UUGCCCAGUACGGCCGCCACUGUGUGCAGGGAACCCAGGUCCACAUGAGGAUCACCCAUGUACAGCAGGACCGGGUACUUGCAAU [Ininladia]	8.14 nM	11.9 nM	–	–	10.6 nM
AACAUGAGGAUCACCCAUGUCCCAUGUGAACGAGGACCGGUACGGCCGCCACUCGACCGAGGCGGCACAUGAGGAUCACCCACAU [whbob_SS_trypto A_2s13]	137 nM	278 nM	–	–	370 nM
GGAUGAAACUGAAGGAGCGAGAUCACAAGAAUGGGUCAAACAUGAGGAUCACCCAUGUAAUCUCAGGUAGGUCGCAGUGUCCCUU [Exclusion Arginine B GF 11]	40.1 nM	80.5 nM	46.2 nM	40.4 nM	55.1 nM
AUAAGUAAUGUUACGUGUUUUAUUACAGAUACCAGACUAUACGUUGUCCCUUGGCAGCUGAAUUACAUGAGGAUCACCCAUGUUG [JR_ExcTheophyA_Sub004]	15.9 nM	18.4 nM	15.1 nM	–	–
ACAUGAGGAUCACCCAUGUAACGGCAUAAUCGAGGACCGGUACGGCCGCCACUCGGAAUCAGUGACAGGCAUAUUUAUUAUAAGA [Eclusion - Tryptophan A / A]	12 nM	15.6 nM	–	–	11.5 nM
UAUAUAGAUGGAAGUCAUAUAGAUGCAGAAGGAGCGUAGGAAACUACAGGUAGGUCGCUGAGGUACAUGAGGAUCACCCAUGUAG [SSArg A #18 Slice of Pi]	20.8 nM	34.1 nM	24.2 nM	27.3 nM	25.3 nM
AGGUGCUGAUCGGCCGCCACUGAGAGGACGUGAACUUUAGCUGGUUACAUGAGGAUCACCCAUGUCAGGACCGGGAUUAGUUUGC [Quleorla]	11.3 nM	17.4 nM	–	–	10.7 nM
UUCUACGGCGAUCUGGGUUUACCAGAUCGACGAGGACCGGUACGGCCGCCACUCGUGUUUCUUUAACAUGAGGAUCACCCAUGUA [#11 Tryptophan A Same State]	53 nM	78.7 nM	–	–	66.1 nM
UACAUAUGCCGAAGGAGCGCGAGAUGCAAAGCAUCAAUCCUUACAUGAGGAUCACCCAUGUCGCAGGUAGGUCGCGGCAUAUGUU [ArgBX 2]	26.8 nM	44.3 nM	36.1 nM	33.6 nM	44.7 nM
ACAUGAGGAUCACCCAUGUGAAGCAGGGUACGAGGACCGGUACGGCCGCCACUCGAACAUUAUAACGAGUGAAUGGCAACGAUGU [B15Jan]	15.7 nM	18.5 nM	–	–	13.8 nM
GAACAUGAGGAUCACCCAUGUAAAACAGAUACCAGUGAUAUAAUACACCCUUGGCAGCUGUAGCUGAAUAAUAAUUCCCUCAAGC [#19 SameState-TheophyllineA]	17 nM	21.8 nM	16.9 nM	–	–
AGACAUGAGGAUCACCCAUGUAGCAUGGAUACCAGAUCCAGAUUUAUCCCUUGGCAGCUGUGGUACAGUGAUGGAUUGCUCCUAG [Exclusion - Theophylline A (Freestyle 8)]	46.3 nM	93.6 nM	61.9 nM	–	–
GGUAGCAGGACUGAUACCAGUCCAGCGAAUCAUACGACGCAACAUGAGGAUCACCCAUGUGACCCUUGGCAGCAGUCUGCUACCG [Same State Theophylline B GF 29]	28.9 nM	23 nM	25.7 nM	–	–
UGUAUGUGAUUUGAUACCAGACCAGCUGGUGGUACUUGAGGAUCACCCAGGUAGGUUUGGGUCCCUUGGCAGCAAAUCGCAUACU [SS Theo B #24 Ms12]	293 nM	731 nM	1310 nM	512 nM	408 nM
AUCUGUAUGUUUUCGUGUUUUAUUACAGAUACCAGACUAUACGUUGUCCCUUGGCAGCUGGAUGACAUGAGGAUCACCCAUGUUG [#27 Exclusion-TheophyllineA]	24 nM	41.2 nM	31.8 nM	–	–
ACACACAUGAGGAUCACCCAUGUAAUAGAUACCAGUGACGCGGUGCACCCUUGGCAGCUGCUGCUGAGUGAUGGUUCCCUCGGAA [Exclusion Theophylline A GF7]	16.8 nM	25.9 nM	19.2 nM	–	–
AUAAGUAAUGUCUCGUGUAUUAUUACAGAUACCAGACUAUCCUAUGUCCCUUGGCAGCUGGAUUACAUGAGGAUCACCCAUGUGG [#11 Exclusion-TheophyllineA]	37.6 nM	49.5 nM	42 nM	–	–
CUGUACAUCUCGGCCGCCACUGACAUGAGGAUCACCCAUGUAGUACCUGAGAUAGACAUAUCUUACAGGACCGGGAGGUGUGCAG [SSTryp B #31]	12.2 nM	13.5 nM	10.6 nM	10.2 nM	9.35 nM
CUAUGCAGGUCGGCCGCCACUACACACAUGAGGAUCACCCAUGUAGUUACUGGGUGAAGUGGCAGUAGGACCGGGACCUGCAUAC [Brourdmod10]	139 nM	394 nM	362 nM	391 nM	817 nM
UAGAUAGAGGGAAGGAGCGCGAUAACAUAACAUGAGGAUCACCCAUGUAAGAAAUUAAUAAUGCAGGUAGGUCGCCCAAGAUGAU [Same State Arginine B gf1]	8.76 nM	15.1 nM	17.1 nM	14.5 nM	19 nM
AGCUCGCAUCCUCUAGCGUCAAAGACGCGUCGAGGACCGGUACGGCCGCCACUCGACGUGAGGAUCACCCACGUCUAAGCGAGCA [TrypAX 10 #SwitchBubble #AlternativeMS2 #MS2Late #CuTurnoff]	19.7 nM	31.7 nM	295 nM	25.5 nM	30.6 nM
UUAUUUAACGGAAGGAGCGCGGAAAUUAAAGUGGGUAAACAUGAGGAUCACCCAUGUAAACCGCAGGUAGGUCGCCGAUAUUUAU [#22 Exclusion - Arginine B]	43 nM	67.3 nM	71.9 nM	84.5 nM	82.1 nM
